The record followed here is the supplement of paper PMC5998384.

For series [1], the system named is HeLa Kyoto. Briefly: solubility in G1/S (NP-40 vs SDS abundance) (log2 ratio); higher = more soluble. The settings on record: cell cycle stage: G1/S.
The test system of series [2] is HeLa Kyoto. Briefly: solubility change mitosis vs G1/S (difference of NP-40 vs SDS log2 ratios) (log2 ratio difference); higher = more soluble in mitosis.
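Wherever solubility change mitosis vs G1/S (difference of NP-40 vs SDS log2 ratios) is given: synchronized HeLa Kyoto cells (double thymidine block for G1/S, nocodazole release for mitosis), protein amounts in NP-40 versus SDS lysates quantified by mass spectrometry, three biological replicates.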
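Wherever solubility in G1/S (NP-40 vs SDS abundance) is given: HeLa Kyoto cells arrested at G1/S by double thymidine block, proteins quantified by TMT10plex mass spectrometry in mild NP-40 versus SDS extracts, three biological replicates.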

Turning to “MGNTTTKFRKALINGDENLACQIYENNPQLKESLDPNTSYGEPYQHNTPLHYAARHGMNKILGTFLGRDGNPNKRNVHNETSMHLLCMGPQIMISEGALHPRLARPTEDDFRRADCLQMILKWKGAKLDQGEYERAAIDAVDNKKNTPLHYAAASGMKACVELLVKHGGDLFAENENKDTPCDCAEKQHHKDLALNLESQMVFSRDPEAEEIEAEYAALDKREPYEGLRPQDLRRLKDMLIVETADMLQAPLFTAEALLRAHDWDREKLLEAWMSNPENCCQRSGVQMPTPPPSGYNAWDTLPSPRTPRTTRSSVTSPDEISLSPGDLDTSLCDICMCSISVFEDPVDMPCGHDFCRGCWESFLNLKIQEGEAHNIFCPAYDCFQLVPVDIIESVVSKEMDKRYLQFDIKAFVENNPAIKWCPTPGCDRAVRLTKQGSNTSGSDTLSFPLLRAPAVDCGKGHLFCWECLGEAHEPCDCQTWKNWLQKITEMKPEELVGVSEAYEDAANCLWLLTNSKPCANCKSPIQKNEGCNHMQCAKCKYDFCWICLEEWKKHSSSTGGYYRCTRYEVIQHVEEQSKEMTVEAEKKHKRFQELDRFMHYYTRFKNHEHSYQLEQRLLKTAKEKMEQLSRALKETEGGCPDTTFIEDAVHVLLKTRRILKCSYPYGFFLEPKSTKKEIFELMQTDLEMVTEDLAQKVNRPYLRTPRHKIIKAACLVQQKRQEFLASVARGVAPADSPEAPRRSFAGGTWDWEYLGFASPEEYAEFQYRRRHRQRRRGDVHSLLSNPPDPDEPSESTLDIPEGGSSSRRPGTSVVSSASMSVLHSSSLRDYTPASRSENQDSLQALSSLDEDDPNILLAIQLSLQESGLALDEETRDFLSNEASLGAIGTSLPSRLDSVPRNTDSPRAALSSSELLELGDSLMRLGAENDPFSTDTLSSHPLSEARSDFCPSSSDPDSAGQDPNINDNLLGNIMAWFHDMNPQSIALIPPATTEISADSQLPCIKDGSEGVKDVELVLPEDSMFEDASVSEGRGTQIEENPLEENILAGEAASQAGDSGNEAANRGDGSDVSSQTPQTSSDWLEQVHLV [ANKIB1]”, the “solubility in G1/S (log2)” value in the series on HeLa Kyoto [1] was found to be 0.00548. In the series on HeLa Kyoto [2], the “solubility change mitosis (log2)” value is -0.221.

On to “MGPGGPLLSPSRGFLLCKTGWHSNRLLGDCGPHTPVSTALSFIAVGMAAPSMKERQVCWGARDEYWKCLDENLEDASQCKKLRSSFESSCPQQWIKYFDKRRDYLKFKEKFEAGQFEPSETTAKS [COA6]”, for which, in the series with HeLa Kyoto [1], the “solubility in G1/S (log2)” value was -0.656. Moreover, the “solubility change mitosis (log2)” value with HeLa Kyoto [2] turned out to be 0.327.

Regarding “MGRAVKVLQLFKTLHRTRQQVFKNDARALEAARIKINEEFKNNKSETSSKKIEELMKIGSDVELLLRTSVIQGIHTDHNTLKLVPRKDLLVENVPYCDAPTQKQ [LYRM7]”, the “solubility in G1/S (log2)” value with HeLa Kyoto [1] is 0.581. Besides, in the series with HeLa Kyoto [2], the “solubility change mitosis (log2)” value was 0.302.

Regarding “MGRKKIQIQRITDERNRQVTFTKRKFGLMKKAYELSVLCDCEIALIIFNHSNKLFQYASTDMDKVLLKYTEYNEPHESRTNADIIETLRKKGFNGCDSPEPDGEDSLEQSPLLEDKYRRASEELDGLFRRYGSTVPAPNFAMPVTVPVSNQSSLQFSNPSGSLVTPSLVTSSLTDPRLLSPQQPALQRNSVSPGLPQRPASAGAMLGGDLNSANGACPSPVGNGYVSARASPGLLPVANGNSLNKVIPAKSPPPPTHSTQLGAPSRKPDLRVITSQAGKGLMHHLTEDHLDLNNAQRLGVSQSTHSLTTPVVSVATPSLLSQGLPFSSMPTAYNTDYQLTSAELSSLPAFSSPGGLSLGNVTAWQQPQQPQQPQQPQPPQQQPPQPQQPQPQQPQQPQQPPQQQSHLVPVSLSNLIPGSPLPHVGAALTVTTHPHISIKSEPVSPSRERSPAPPPPAVFPAARPEPGDGLSSPAGGSYETGDRDDGRGDFGPTLGLLRPAPEPEAEGSAVKRMRLDTWTLK [MEF2D]”, the “solubility in G1/S (log2)” value with HeLa Kyoto [1] was 0.219. Also, the “solubility change mitosis (log2)” value in the series with HeLa Kyoto [2] worked out at 0.0539.

As for “MGSAKSVPVTPARPPPHNKHLARVADPRSPSAGILRTPIQVESSPQPGLPAGEQLEGLKHAQDSDPRSPTLGIARTPMKTSSGDPPSPLVKQLSEVFETEDSKSNLPPEPVLPPEAPLSSELDLPLGTQLSVEEQMPPWNQTEFPSKQVFSKEEARQPTETPVASQSSDKPSRDPETPRSSGSMRNRWKPNSSKVLGRSPLTILQDDNSPGTLTLRQGKRPSPLSENVSELKEGAILGTGRLLKTGGRAWEQGQDHDKENQHFPLVES [CDCA3]”, in the series with HeLa Kyoto [1], the “solubility in G1/S (log2)” value is -0.032. For the same sequence, the “solubility change mitosis (log2)” value in the series with HeLa Kyoto [2] turned out to be 0.957.

As to “MGSILSRRIAGVEDIDIQANSAYRYPPKSGNYFASHFFMGGEKFDTPHPEGYLFGENMDLNFLGSRPVQFPYVTPAPHEPVKTLRSLVNIRKDSLRLVRYKDDADSPTEDGDKPRVLYSLEFTFDADARVAITIYCQASEEFLNGRAVYSPKSPSLQSETVHYKRGVSQQFSLPSFKIDFSEWKDDELNFDLDRGVFPVVIQAVVDEGDVVEVTGHAHVLLAAFEKHMDGSFSVKPLKQKQIVDRVSYLLQEIYGIENKNNQETKPSDDENSDNSNECVVCLSDLRDTLILPCRHLCLCTSCADTLRYQANNCPICRLPFRALLQIRAVRKKPGALSPVSFSPVLAQSLEHDEHSCPFKKSKPHPASLASKKPKRETNSDSVPPGYEPISLLEALNGLRAVSPAIPSAPLYEEITYSGISDGLSQASCPLAAIDHILDSSRQKGRPQSKAPDSTLRSPSSPIHEEDEEKLSEDVDAPPPLGGAELALRESSSPESFITEEVDESSSPQQGTRAASIENVLQDSSPEHCGRGPPADIYLPALGPDSCSVGIDE [MGRN1]”, the “solubility in G1/S (log2)” value in the series with HeLa Kyoto [1] is -0.00834. For the same sequence, in the series with HeLa Kyoto [2], the “solubility change mitosis (log2)” value came out at 0.156.

Take “MGSRPPCGATSSARRACQFPAPMAAAREPELPQEAPATEPAPPPACRFFLEGRCRFGARCRQPHPGAPAPPGREAQPEAGAKKPPLRTAADVIQRIRWDPRLDPADFSVGYVDRFLGVREEPFSAFCWDQPLAALGPGVLAVPQHRVRFFRFHGRLVWDRASRTDLVFGSGSAAGRGPTILDAPNTEGAHGAEGAEWTLAGTGQEAQAAPKRGSTRPLCTGHQEPGVEEPGELEAAQERALGTAADLGTLAPRGRLAGVTEEALKPTAATRTTLLGGKEAQALGVPGGSAETTEAEWGPAAWPEDKRARLSVAAPCQPRPTHFVALMVTEPGLQAEVTKAQEYLVHVAPHCANFLVPSQNLHLTLALLRLAGAGEEAAAIGALRRALLAPGLNAPPRLSFRKLVLLGPHVLCAPPSPTLESMAQVLSQRLEAEGLSTLQSPGQLHPHLTVAKVPHGSQVHLPKLEFTLSQEVGCQPLQTLWLCRIGRTGGPFQPLAEIRLE [LENG9]”: the “solubility in G1/S (log2)” value in the series on HeLa Kyoto [1] was determined as 0.366. Besides, the “solubility change mitosis (log2)” value in the series on HeLa Kyoto [2] was -0.034.

As to “MGTIHLFRKPQRSFFGKLLREFRLVAADRRSWKILLFGVINLICTGFLLMWCSSTNSIALTAYTYLTIFDLFSLMTCLISYWVTLRKPSPVYSFGFERLEVLAVFASTVLAQLGALFILKESAERFLEQPEIHTGRLLVGTFVALCFNLFTMLSIRNKPFAYVSEAASTSWLQEHVADLSRSLCGIIPGLSSIFLPRMNPFVLIDLAGAFALCITYMLIEINNYFAVDTASAIAIALMTFGTMYPMSVYSGKVLLQTTPPHVIGQLDKLIREVSTLDGVLEVRNEHFWTLGFGSLAGSVHVRIRRDANEQMVLAHVTNRLYTLVSTLTVQIFKDDWIRPALLSGPVAANVLNFSDHHVIPMPLLKGTDDLNPVTSTPAKPSSPPPEFSFNTPGKNVNPVILLNTQTRPYGFGLNHGHTPYSSMLNQGLGVPGIGATQGLRTGFTNIPSRYGTNNRIGQPRP [SLC30A6]”, the “solubility in G1/S (log2)” value in the series with HeLa Kyoto [1] was -0.097. Further, the “solubility change mitosis (log2)” value in the series on HeLa Kyoto [2] is -0.0121.

As to “MIATPLKHSRIYLPPEASSQRRNLPMDAIFFDSIPSGTLTPVKDLVKYQNSSLKLNDHKKNQFLKMTTFNNKNIFQSTMLTEATTSNSSLDISAIKPNKDGLKNKANYESPGKIFLRMKEKVLRDKQEQPSRNSSLLEPQKSGNNETFTPNRVEKKKLQHTYLCEEKENNKSFQSDDSSLRASVQGVPLESSNNDIFLPVKQKIQCQQEKKAPLHNLTYELPTLNQEQENFLAVEARNKTLTRAQLAKQIFHSKESIVATTKSKKDTFVLESVDSADEQFQNTNAETLSTNCIPIKNGSLLMVSDSERTTEGTSQQKVKEGNGKTVPGETGLPGSMKDTCKIVLATPRLHITIPRRSKRNISKLSPPRIFQTVTNGLKKNQVVQLQEWMIKSINNNTAICVEGKLIDVTNIYWHSNVIIERIEHNKLRTISGNVYILKGMIDQISMKEAGYPNYLIRKFMFGFPENWKEHIDNFLEQLRAGEKNREKTKQKQKTGRSVRDIRKSMKNDARENQTDTAQRATTTYDFDCDNLELKSNKHSESPGATELNMCHSNCQNKPTLRFPDDQVNNTIQNGGGDDLSNQELIGKKEYKMSSKKLKIGERTNERIIKSQKQETTEELDVSIDILTSREQFFSDEERKYMAINQKKAYILVTPLKSRKVIEQRCMRYNLSAGTIKAVTDFVIPECQKKSPISKSMGTLENTFEGHKSKNKEDCDERDLLTVNRKIKISNLEKEQMLTSDFKKNTRLLPKLKKIENQVAMSFYKHQSSPDLSSEESETEKEIKRKAEVKKTKAGNTKEAVVHLRKSTRNTSNIPVILEPETEESENEFYIKQKKARPSVKETLQKSGVRKEFPITEAVGSDKTNRHPLECLPGLIQDKEWNEKELQKLHCAFASLPKHKPGFWSEVAAAVGSRSPEECQRKYMENPRGKGSQKHVTKKKPANSKGQNGKRGDADQKQTIKITAKVGTLKRKQQMREFLEQLPKDDHDDFFSTTPLQHQRILLPSFQDSEDDDDILPNMDKNPTTPSSVIFPLVKTPQCQHVSPGMLGSINRNDCDKYVFRMQKYHKSNGGIVWGNIKKKLVETDFSTPTPRRKTPFNTDLGENSGIGKLFTNAVESLDEEEKDYYFSNSDSA [MIS18BP1]”, the “solubility in G1/S (log2)” value in the series on HeLa Kyoto [1] was -1.77. In addition, in the series on HeLa Kyoto [2], the “solubility change mitosis (log2)” value came to 1.22.

As to “MIVFGWAVFLASRSLGQGLLLTLEEHIAHFLGTGGAATTMGNSCICRDDSGTDDSVDTQQQQAENSAVPTADTRSQPRDPVRPPRRGRGPHEPRRKKQNVDGLVLDTLAVIRTLVDNDQEPPYSMITLHEMAETDEGWLDVVQSLIRVIPLEDPLGPAVITLLLDECPLPTKDALQKLTEILNLNGEVACQDSSHPAKHRNTSAVLGCLAEKLAGPASIGLLSPGILEYLLQCLKLQSHPTVMLFALIALEKFAQTSENKLTISESSISDRLVTLESWANDPDYLKRQVGFCAQWSLDNLFLKEGRQLTYEKVNLSSIRAMLNSNDVSEYLKISPHGLEARCDASSFESVRCTFCVDAGVWYYEVTVVTSGVMQIGWATRDSKFLNHEGYGIGDDEYSCAYDGCRQLIWYNARSKPHIHPCWKEGDTVGFLLDLNEKQMIFFLNGNQLPPEKQVFSSTVSGFFAAASFMSYQQCEFNFGAKPFKYPPSMKFSTFNDYAFLTAEEKIILPRHRRLALLKQVSIRENCCSLCCDEVADTQLKPCGHSDLCMDCALQLETCPLCRKEIVSRIRQISHIS [RSPRY1]”, the “solubility in G1/S (log2)” value in the series with HeLa Kyoto [1] was -0.235. Further, in the series on HeLa Kyoto [2], the “solubility change mitosis (log2)” value was -0.00113.

Take “MKALIVLGLVLLSVTVQGKVFERCELARTLKRLGMDGYRGISLANWMCLAKWESGYNTRATNYNAGDRSTDYGIFQINSRYWCNDGKTPGAVNACHLSCSALLQDNIADAVACAKRVVRDPQGIRAWVAWRNRCQNRDVRQYVQGCGV [LYZ]”: the “solubility in G1/S (log2)” value in the series with HeLa Kyoto [1] is -1.78. In addition, the “solubility change mitosis (log2)” value in the series with HeLa Kyoto [2] turned out to be 2.19.
